Target: FLAG-Pen-2 (human) (UniProt Q9NZ42)
Experiment: STEM mass measurement

Chain of UniProt Q9NZ42 (Q9NZ42 whole entry): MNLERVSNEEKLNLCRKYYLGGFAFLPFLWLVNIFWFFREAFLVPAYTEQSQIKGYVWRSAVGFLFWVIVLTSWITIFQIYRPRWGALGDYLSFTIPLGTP

stoichiometry N: 1
Substance: Aph1α2-HA (from UniProt Q96BI3 1-265) (natural protein)

From PMC2830092
